Reference: patent US20230265215A1 (OMEROS, published 2023)

Experiments:
[1] = molecular target: T1, Human MASP-2 CCP1/CCP2/SP H508Q 'dog-like' (human, UniProt O00187 287-686, limits assumed); assay: BLI (Octet RED96), OMS858 on anti-human Fc capture sensors, MASP-2 protein 1.6-50 nM
T1 construct: also called dog-like variant of human MASP-2; MASP-2 H508Q
Method: (§1) All measurements were conducted with the Octet RED96 system (ForteBio) using PBS containing 1% BSA and 0.02% Tween 20 as assay buffer. […] After one step of baseline, the captured sensors were submerged into wells containing different concentrations of the target proteins (1.6-50 nM) for the association step (120 sec), and then transferred to empty wells for the dissociation step (200 sec). In all experiments, the captured sensor was also dipped in a well containing no analyte to allow single reference subtraction to compensate for the natural dissociation of the captured antibody. The recorded binding sensorgrams were analyzed with Octet data analysis software (ForteBio) to determine binding affinity (KD).

[2] = molecular target: T2, Human MASP-2 CCP1/CCP2/SP (6xHis, E. coli, Example 10) (human, UniProt O00187 287-686, limits assumed); assay: as above
T2 construct: Expressed in BL21(DE3)pLysS E. coli and purified by IMAC; It may be the same protein as m6; also called catalytic fragment (CCP1-CCP2-SP domains) of human MASP-2; wild-type human H508
Method: as §1

C1r = molecular target: T3, C1r (human, UniProt P00736 18-705, limits assumed); assay: solid phase ELISA, immobilized protease, apparent KD
T3 construct: Species read from 'Recombinant human MASP-2 or C1r, C1s, CFD, MASP-1 and MASP-3'
T3 sequence (looked up): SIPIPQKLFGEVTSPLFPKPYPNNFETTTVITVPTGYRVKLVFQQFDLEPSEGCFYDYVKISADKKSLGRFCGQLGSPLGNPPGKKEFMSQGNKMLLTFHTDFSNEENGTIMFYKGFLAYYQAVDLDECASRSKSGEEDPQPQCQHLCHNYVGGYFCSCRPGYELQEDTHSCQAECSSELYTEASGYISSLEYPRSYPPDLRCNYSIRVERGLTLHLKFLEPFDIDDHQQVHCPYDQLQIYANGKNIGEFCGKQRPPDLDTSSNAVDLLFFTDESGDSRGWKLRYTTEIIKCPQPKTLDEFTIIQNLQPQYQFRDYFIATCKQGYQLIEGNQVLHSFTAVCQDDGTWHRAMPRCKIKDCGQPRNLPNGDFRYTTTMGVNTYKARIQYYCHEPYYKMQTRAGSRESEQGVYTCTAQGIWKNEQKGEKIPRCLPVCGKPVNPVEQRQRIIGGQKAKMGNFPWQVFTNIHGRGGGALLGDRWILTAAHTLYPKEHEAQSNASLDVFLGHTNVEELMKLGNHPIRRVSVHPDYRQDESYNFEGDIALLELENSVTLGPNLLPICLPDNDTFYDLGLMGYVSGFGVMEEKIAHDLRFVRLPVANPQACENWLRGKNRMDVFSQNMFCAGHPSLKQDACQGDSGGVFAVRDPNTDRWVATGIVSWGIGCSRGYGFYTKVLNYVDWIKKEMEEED
Description: (§2) The apparent dissociation constant (KD) was estimated by nonlinear regression using a 4-parameter logistic model.

MASP-3 = molecular target: T4, MASP-3 (human, UniProt P48740-2 20-728, limits assumed); assay: as above
T4 construct: Species read from 'Recombinant human MASP-2 or C1r, C1s, CFD, MASP-1 and MASP-3'
T4 sequence (looked up): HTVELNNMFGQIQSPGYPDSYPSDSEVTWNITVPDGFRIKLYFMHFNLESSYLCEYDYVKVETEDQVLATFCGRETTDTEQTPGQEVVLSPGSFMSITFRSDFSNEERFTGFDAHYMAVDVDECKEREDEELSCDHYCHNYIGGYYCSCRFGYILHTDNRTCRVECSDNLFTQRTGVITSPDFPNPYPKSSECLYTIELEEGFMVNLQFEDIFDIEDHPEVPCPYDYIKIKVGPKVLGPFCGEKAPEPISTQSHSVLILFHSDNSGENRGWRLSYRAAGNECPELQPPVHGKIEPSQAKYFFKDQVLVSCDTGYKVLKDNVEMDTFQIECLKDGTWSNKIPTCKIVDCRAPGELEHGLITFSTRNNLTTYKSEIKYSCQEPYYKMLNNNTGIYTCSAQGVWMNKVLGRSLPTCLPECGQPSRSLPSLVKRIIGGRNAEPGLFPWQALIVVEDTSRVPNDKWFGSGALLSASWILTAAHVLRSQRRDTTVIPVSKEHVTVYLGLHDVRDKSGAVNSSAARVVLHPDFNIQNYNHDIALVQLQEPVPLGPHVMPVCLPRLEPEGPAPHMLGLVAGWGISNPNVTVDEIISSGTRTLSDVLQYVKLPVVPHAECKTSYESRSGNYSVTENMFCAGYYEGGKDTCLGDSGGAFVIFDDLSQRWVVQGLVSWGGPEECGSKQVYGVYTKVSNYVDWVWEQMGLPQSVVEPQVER
Description: as §2

CFD = molecular target: T5, CFD (human, UniProt P00746 26-253, limits assumed); assay: as above
T5 construct: Species read from 'Recombinant human MASP-2 or C1r, C1s, CFD, MASP-1 and MASP-3'; also called factor D; complement factor D
Description: as §2

C1s = molecular target: T6, C1s (human, UniProt P09871 16-688, limits assumed); assay: as above
T6 construct: Species read from 'Recombinant human MASP-2 or C1r, C1s, CFD, MASP-1 and MASP-3'
T6 sequence (looked up): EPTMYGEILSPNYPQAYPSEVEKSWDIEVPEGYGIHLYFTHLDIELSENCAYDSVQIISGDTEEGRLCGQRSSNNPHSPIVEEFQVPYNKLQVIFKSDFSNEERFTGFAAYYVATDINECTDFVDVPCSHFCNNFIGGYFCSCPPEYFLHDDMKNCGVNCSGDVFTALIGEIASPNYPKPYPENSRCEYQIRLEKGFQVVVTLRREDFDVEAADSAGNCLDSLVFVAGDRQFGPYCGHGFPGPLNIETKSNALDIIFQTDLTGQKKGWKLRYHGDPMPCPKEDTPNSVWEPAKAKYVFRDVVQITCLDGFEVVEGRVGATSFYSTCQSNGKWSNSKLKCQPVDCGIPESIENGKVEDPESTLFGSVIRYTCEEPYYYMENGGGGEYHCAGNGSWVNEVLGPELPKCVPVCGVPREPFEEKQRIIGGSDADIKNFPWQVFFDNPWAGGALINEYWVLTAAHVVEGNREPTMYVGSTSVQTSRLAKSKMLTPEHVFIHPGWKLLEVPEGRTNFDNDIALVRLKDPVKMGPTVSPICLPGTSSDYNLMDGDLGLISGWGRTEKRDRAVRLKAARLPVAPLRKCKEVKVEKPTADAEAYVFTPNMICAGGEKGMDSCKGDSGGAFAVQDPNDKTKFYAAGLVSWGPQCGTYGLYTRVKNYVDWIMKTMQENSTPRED
Description: as §2

T2 sequence (O00187 other isoform, or with tags, fused parts or gaps limits assumed): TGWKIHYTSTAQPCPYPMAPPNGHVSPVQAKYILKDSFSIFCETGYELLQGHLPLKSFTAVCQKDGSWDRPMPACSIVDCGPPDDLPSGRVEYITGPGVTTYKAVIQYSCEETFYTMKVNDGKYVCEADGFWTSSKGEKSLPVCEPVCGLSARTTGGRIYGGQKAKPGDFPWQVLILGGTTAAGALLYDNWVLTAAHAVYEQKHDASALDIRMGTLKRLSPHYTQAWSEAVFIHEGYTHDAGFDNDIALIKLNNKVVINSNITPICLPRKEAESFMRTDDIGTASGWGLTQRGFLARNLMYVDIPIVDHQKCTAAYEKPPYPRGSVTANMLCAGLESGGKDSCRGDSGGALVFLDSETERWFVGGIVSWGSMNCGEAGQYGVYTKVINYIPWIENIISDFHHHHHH
T1 sequence (O00187 other isoform, or with tags, fused parts or gaps H508Q H508Q limits assumed): as the sequence (O00187 other isoform, or with tags, fused parts or gaps limits assumed) above, with H222Q counted along it
T5 sequence (P00746 26-253 limits assumed): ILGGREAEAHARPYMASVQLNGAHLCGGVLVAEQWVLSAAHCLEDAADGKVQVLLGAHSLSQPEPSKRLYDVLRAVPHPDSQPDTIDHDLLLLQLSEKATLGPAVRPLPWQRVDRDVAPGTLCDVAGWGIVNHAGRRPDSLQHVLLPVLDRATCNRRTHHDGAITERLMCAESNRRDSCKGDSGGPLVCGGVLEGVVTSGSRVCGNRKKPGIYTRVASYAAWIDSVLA

Kd [1]: ~2000 nM
Kd [2]: 4.52 nM
Kd (C1r): > 100 µg/mL
Kd (MASP-3): > 100 µg/mL
Kd (CFD): > 100 µg/mL
Kd (C1s): > 100 µg/mL
B1: mAb OMS858 (humanized anti-MASP-2 antibody) (antibody, V domains shown)
VH: QVQLVQSGAEVKKPGASVKVSCKASGYTFTNHHMHWLRQAPGQGLEWIGDIDASDSETHYIEKFKDRATLTIDKSSSTAYMELSSLRSEDTAVYYCARGDITTTLRYFDVWGQGTLVTVSS
VL: DIQLTQSPSSLSASVGDRVTITCSASSSVRYMYWYQQKPGKAPKLLIYDTSNLASGVPSRFSGSGSGTDNTLTISSLQPEDFATYYCQQWSSYPLTFGQGTKVEIKR
notes: also called antibody OMS858; biotinylated OMS858
